Measured values taken from patent EP4585618A1 (Jiangsu Hengrui Pharmaceuticals Co., Ltd., dated 2025).

What was measured:
[1] = molecular target: T1, His-tagged ILT4 protein extracellular domain: ILT4-His (human, UniProt Q8N423 22-460); test: ELISA, coated ILT4-His 1 µg/mL; Assay 4
T1 construct: Expressed in 293 cells; also called human ILT4-His protein

[2] = molecular target: T1, His-tagged ILT4 protein extracellular …; test: ELISA, coated ILT4-His 1 µg/mL; Assay 5
[3] = molecular target: T2, full-length human ILT4 protein overexpressed on cells (human, UniProt Q8N423 22-597); test: flow cytometry competition on CHO-S/ILT4 cells; competitor CF647-labelled HLA-G tetramer; Assay 4
T2 construct: also called CHO-S/ILT4; ILT4 stably transfected cell strain

[4] = molecular target: T2, full-length human ILT4 protein …; test: flow cytometry competition on CHO-S/ILT4 cells; competitor CF647-labelled HLA-G tetramer; Assay 2
[5] = molecular target: T1, His-tagged ILT4 protein extracellular …; test: ELISA, coated ILT4-His 1 µg/mL; Assay 2
[6] = molecular target: T2, full-length human ILT4 protein …; test: flow cytometry competition on CHO-S/ILT4 cells; competitor CF647-labelled HLA-G tetramer; Assay 1
[7] = molecular target: T2, full-length human ILT4 protein …; test: flow cytometry competition on CHO-S/ILT4 cells; competitor CF647-labelled HLA-G tetramer; Assay 3
[8] = molecular target: T1, His-tagged ILT4 protein extracellular …; test: ELISA, coated ILT4-His 1 µg/mL; Assay 1
[9] = molecular target: T1, His-tagged ILT4 protein extracellular …; test: ELISA, coated ILT4-His 1 µg/mL; Assay 3

T2 sequence (Q8N423 other isoform, or with tags, fused parts or gaps limits assumed): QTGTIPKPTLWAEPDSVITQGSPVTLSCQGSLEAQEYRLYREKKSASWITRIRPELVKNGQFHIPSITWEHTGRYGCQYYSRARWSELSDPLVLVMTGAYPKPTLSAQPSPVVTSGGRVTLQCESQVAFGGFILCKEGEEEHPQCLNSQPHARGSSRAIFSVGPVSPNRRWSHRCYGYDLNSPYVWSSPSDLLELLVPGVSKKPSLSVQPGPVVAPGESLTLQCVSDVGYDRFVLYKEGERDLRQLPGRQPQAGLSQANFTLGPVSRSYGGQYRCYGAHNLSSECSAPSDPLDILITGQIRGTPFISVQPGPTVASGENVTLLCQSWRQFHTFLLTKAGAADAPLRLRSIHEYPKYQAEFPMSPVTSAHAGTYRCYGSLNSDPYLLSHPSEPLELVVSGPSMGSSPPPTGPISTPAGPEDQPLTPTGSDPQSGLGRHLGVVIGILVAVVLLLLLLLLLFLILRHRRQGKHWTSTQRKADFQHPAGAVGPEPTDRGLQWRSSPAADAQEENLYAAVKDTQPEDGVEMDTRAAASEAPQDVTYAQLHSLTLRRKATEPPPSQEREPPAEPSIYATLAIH
T1 sequence (Q8N423 other isoform, or with tags, fused parts or gaps limits assumed): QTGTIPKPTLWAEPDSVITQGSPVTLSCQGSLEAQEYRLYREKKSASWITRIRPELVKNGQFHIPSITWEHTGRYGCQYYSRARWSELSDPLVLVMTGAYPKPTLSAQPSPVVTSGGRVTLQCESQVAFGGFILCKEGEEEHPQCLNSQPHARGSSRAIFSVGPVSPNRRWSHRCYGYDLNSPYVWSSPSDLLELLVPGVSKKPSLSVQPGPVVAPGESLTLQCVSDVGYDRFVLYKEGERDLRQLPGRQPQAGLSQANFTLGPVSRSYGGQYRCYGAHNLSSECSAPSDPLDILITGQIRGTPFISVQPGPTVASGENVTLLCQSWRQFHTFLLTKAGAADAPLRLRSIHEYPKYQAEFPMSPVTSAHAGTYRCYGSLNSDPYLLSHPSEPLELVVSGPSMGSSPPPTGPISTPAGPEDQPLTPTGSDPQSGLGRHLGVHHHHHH

EC50 [1] [µg/mL]	EC50 [2] [µg/mL]	Top [2] [absorbance at 450 nm]	IC50 [3] [µg/mL]	IC50 [4] [µg/mL]	EC50 [5] [µg/mL]	Top [5] [absorbance at 450 nm]	IC50 [6] [µg/mL]	IC50 [7] [µg/mL]	EC50 [8] [µg/mL]	EC50 [9] [µg/mL]	Binder
0.041											chimeric antibody ChP1-E11 (antibody, human IgG4 S228P, kappa, F234A L235A, V domains shown, Murine variable regions with hIgG4(LALA) and CL constant regions; also called M P1-E11) VH: EVQLQQSGPELVKPGASVKMSCQASGYTFTDYSIHWVKQSRGASLEWIGYINPNNGVTNYNQKFKGKATLTVNKSSSTAYMELRSLTSEDSAVYYCAREGDSVTTIVVHWYFDVGGTGTTVTVSS VL: DIQMTQSPASLSVSLGETVTITCRASENIYSNLVWYQQKQGKFPQLLVYAAINLVDGVPSRFSGSGSGTQYSLKINSLQSEDFGSYYCQQFWDTPLTFGAGTKLEIKR
0.083	0.0801	1.14	0.061	0.12	0.0826	1.7	0.022	0.12	0.0826	0.0293	positive control antibody JTX (sequences from WO2019126514A2) (antibody, human IgG4 S228P, kappa, V domains shown, also called JTX-8064) VH: QITLKESGPTLVKPTQTLTLTCTFSGFSLNTYAMGVSWIRQPPGKALEWLASIWWNGNKYNNPSLKSRLTVTKDTSKNQVVLTMTNMDPVDTATYYCAHSRIIRFTDYVMDAWGQGTLVTVSS VL: DIQMTQSPSSLSTSVGDRVTITCRASEDIYNDLAWYQQKPGKAPKLLIYNANSLHTGVASRFSGSGSGTDFTFTISSLQPEDVATYFCQQYYDYPLTFGQGTKLEIKR
